In the RNAGym collection of RNA variant scans (doi:10.1073/pnas.2313332121):

B1: TPR t1 (parent)
chain: GACCAAUCUGCCCUCAGAGCUCGAGAACAUCUUCGGAUGCAGAGGAGGCAGGCUUCGGUGGCGCGAUAGCGCCAACGUCCUCAACCUCCAAUGCAUCCCACCACAUGAUGAUGCCUGAAGAGCCUUGGUUUUUUG

Variants of: B1
Assay: polymerase ribozyme fitness, log enrichment relative to wild type (log ratio); higher = more active; in vitro selection for triplet polymerase activity
Method in brief: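 One round of in vitro selection, in triplicate, was applied to PCR-built, transcribed mutant libraries of each subunit of a heterodimeric triplet polymerase ribozyme. The steps were annealing with a biotinylated primer, partner subunit and triplets, incubation frozen at −7 °C, gel excision of extended constructs, streptavidin-bead capture and RT-PCR. Fitness is the logarithm, base 2, of genotype enrichment over wild-type enrichment from inverse-variance-weighted replicate averages of Illumina-sequenced inputs and outputs, keeping genotypes with ≥10 input reads and ≥1 read per output.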

Variant	polymerase ribozyme fitness (log ratio)
GACCAAUCUGCCCUCAGAGCUCGAGAACAUCUUCGGUUGCAGAGGAAGCAGGCUUCGGUGGCGCGAUGGCGCCAACGUCAUCAACCUCCAAUGCAUCCCACCACAUGAUGAUGCCUGAAGAGCCUUGGUUUUUUG [A37U G47A A68G C80A]	-6.59
GACCAAUCUGCCCUCAGAGCUCGAGAACAUCUUCGGUUGUAGAGGAGGCCCGCUUCGGUGGCGCGAUAGCGCCUACGUCCUCAACCUCCAAUGCAUCCCACCACAUGAAGAUGCCUGAAGAGCCUUGGUUGUUUG [A37U C40U A50C G51C A74U U109A U131G]	-5.36
GACCAAUCUGCCCUCAGAGCUCGAGAACAUCUUCGGUUGCAGAGGAGGUAGGCUUCGGUGGCGUGAUAGCGCCAACGUCCUCAACCUCCAAUGCAUCCCACCACAUGAUGAUGUCUGAAGAGCCUUGGUUUUUUG [A37U C49U C64U C114U]	-3.02
GACCAAUCUGCCCUCAGAGCUCGAGAACAUCUUCGGUUGCAGAGGUGGCAGGCUUCGGUGGCGCGAUAGCGCCAACGUCCUCAACCUCCAAUGCAUCCCACCACAUGAUGAUGCCUGAAGAGCCUUGGUUUUUUG [A37U A46U]	-2.98
GACCAAUCUGCCCUCAGAGCUCGAGAACAUCUUCGGUUGCAGAGGAGGCAGGCUUCGGUAGCGCGAUAGCGCCAACGUCCUCAACCUCCAAUGCAUCCCAUCACAUGAUGAUGCCUGAAGAGCCUUGGUUUUUUG [A37U G60A C101U]	-0.477
GACCAAUCUGCCCUCAGAGCUCGAGAACAUCUUCGGUUGCAGAGGAGGCAGGCUUCGGUGGCGCGAUAGCGCCAACGUCCUCAACCUCCCAUGCAACCCACCACAUGAUGAUGCCUGAAGAGCCUUGGUUUUUUG [A37U A90C U96A]	-0.653
GACCAAUCUGCCCUCAGAGCUCGAGAACAUCUUCGGUUGCAGAGGAGGCAGGCUUCGGUGGCGCGAUAGCGCCAACGUCCUCAACCUCCAAUGCAUCCUACCACAUGAUGAUGCCUGAAGAGCCUUGGUUUUUUG [A37U C99U]	-2.37
GACCAAUCUGCCCUCAGAGCUCGAGAACAUCUUCGGUUGCAGAGGAGGCAGGCUUCGGUGGCGCGAUAGCGCCAUCGUCCUCAACCUCCAAUGCAUCCCACCACAUGAUGAUGCCUGAACAGCCUUGGUUUUUUG [A37U A75U G120C]	1.14
GACCAAUCUGCCCUCAGAGCUCGAGAACAUCUUCGGUUGCAGAGGAGGCAGGCUUCGGUGGCGCGAUAGCGUCAACGUCCUCAACCUCCAAUGCAACCCACCACAUGAUGAUGCCUGAAGAGCCUUGGUUUUUUG [A37U C72U U96A]	-0.172
GACCAAUCUGCCCUCAGAGCUCGAGAACAUCUUCGGUUGCAGAGGAGGCAGGCUUCGGUCGUGCGAUAGCGCCAACGUCCUCAACCUCCAAUGCAUCCCACCACAUGAUGAUGCCUGAAGAGCCUUGGUUUUUUG [A37U G60C C62U]	-2.01
GACCAAUCUGCCCUCAGAGCUCGAGAACAUCUUCGGUUGCAGAAGAGGCAGGCUUCGGUGGCGCGAUAGCGCCAACGUCCUCAACCUCCAAUGCAUCCCACCACAUGAUGAUGCCUGAAGAGCCUUGGUUUUUUG [A37U G44A]	-2.19
GACCAAUCUGCCCUCAGAGCUCGAGAACAUCUUCGGUUGCAGAGGAGGCAGGCUUCGGUGGCGCGAUAACGCCAACGUCCUCAACCUCCAAUGCAUCCCACCACAUGAUGAUGCCUGAAGAGCCUUGGUUUUUUG [A37U G69A]	-3.01
GACCAAUCUGCCCUCAGAGCUCGAGAACAUCUUCGGUUGCAGAGGAGGCAGGCUUCGGUGGCGUGAUAGCGCCAACGUCCUCAACCUUCAAUGCAUCCCACAACAUGAUGAUGCCUGAAGAGCCUUGGUUUUUUG [A37U C64U C88U C102A]	-2.71
GACCAAUCUGCCCUCAGAGCUCGAGAACAUCUUCGGUUGCAGAGGAGGCAGGCUUCGGUGGCGCGAUAGCGCGAACGUCCUCAACCUCCAAUGCAUCCCACCACAUGAUGAUGCCUGAAGAGCCUUGGUUUUUUG [A37U C73G]	-1.27
GACCAAUCUGCCCUCAGAGCUCGAGAACAUCUUCGGUUGCAGAGGAGGCUGGCUUCGGUGGCGCGAUAGCGCCAACGUCCUCAACCUCCAAUGUAUCCCACCACAUGAUGAUGCCUGAAGAGCCUUGGUUUUUUG [A37U A50U C94U]	-1.81
GACCAAUCUGCCCUCAGAGCUCGAGAACAUCUUCGGUUGCAGAGGUGGCAGGCUUCGGUGGCGUGAUAGCGCCAACGUCCUCAACCUCCAAUGCAUCCCACCACAUGAUGAUGCAUGAAGAGCCUUGGUUUUUUG [A37U A46U C64U C115A]	-3.03
GACCAAUCUGCCCUCAGAGCUCGAGAACAUCUUCGGUUGAAGAGGAGGCAGGCUUCGGUGGCGCGAUACCGCCAACGUCCUCAACCUCCAAUGCAUCCCACCACAUGAUGAUGCCUGAAGAGCCUUGGUAUUUUG [A37U C40A G69C U130A]	-3.51
GACCAAUCUGCCCUCAGAGCUCGAGAACAUCUUCGGUUGCAGAGGAGGCGGGCUUCGGUGGCGCGAUAGCGCCAACGUCCUCAACCUCCAAUGCAUCCCACCACAUGAUGAUGCCUGAAGAGCCUUGGUUUUUUG [A37U A50G]	-0.867
GACCAAUCUGCCCUCAGAGCUCGAGAACAUCUUCGGUUGCAGAGGAGGCAGGCUUCGGUGGCGCGAUAGCGCCAAUGUCCUCAACCUCCAAUGCAUCCCACCACAUGAUGAUGCCUGAAGAGCCUUGGUUUUUUG [A37U C76U]	-0.3
GACCAAUCUGCCCUCAGAGCUCGAGAACAUCUUCGGUUGCAGAGGAGACAGGCUUCGGUGCCGCGAUAGCGCCAACGUCCUCAACCUCCAAUGCAUCCCACCACAUGAUGAUGCCAGAAGAGCCUUGGUUUUUUG [A37U G48A G61C U116A]	-4.18
GACCAAUCUGCCCUCAGAGCUCGAGAACAUCUUCGGUUGCAGAGGAGGCCGGCUUCGGUGGCUCGAUAGCGCCAACGUAGUCAACCUCCAAUGCAUCCCACCACAUUAUGAUGCCUCAAGAGCCUUGGUUUUUUG [A37U A50C G63U C79A C80G G107U G117C]	-6.62

Variant	polymerase ribozyme fitness (log ratio)
GACCAAUCUGCCCUCAGAGCUCGAGAACAUCUUCGGUUGCAGAGGAGGCAGGCUUCGGUGUCGCGAUAGCGCCAACGUCCUCAACCUCCAAUGCAUCCCACCACAUGAUGAUGCCUGAACAGCCUUGGUUUUUUG [A37U G61U G120C]	0.718
GACCAAUCUGCCCUCAGAGCUCGAGAACAUCUUCGGUUGCAGAGGAGGCAGGCUUCGGUGGCGCGAUAGCGCCAACGUCCUCAACCUCCAAUGCAUCCCACCAUAUGAUGAUGCCCGAAGAGCCUUGGUUUUUUG [A37U C104U U116C]	-0.911
GACCAAUCUGCCCUCAGAGCUCGAGAACAUCUUCGGUUGCAGAGGAGGCAGGCUUCGGUGGCGCGAUAGCGCCAACGUCCUCAACCUCCAAUGCAUCCCCCCUCAUGAUGAUGCCUGAAGAGCCUUGGUUUUUUG [A37U A100C A103U]	-5.74
GACCAAUCUGCCCUCAGAGCUCGAGAACAUCUUCGGUUGCAGAGGAGGCAUGCUUCGGUCGCGCGAUAGCGCCAACGUCCUCAAUCUCCAAUGCAACCCACCACAUGAUGAUACCUGAAGAGCCUUGGUUUUUUG [A37U G51U G60C C85U U96A G113A]	-4.21
GACCAAUCUGCCCUCAGAGCUCGAGAACAUCUUCGGUUGCAGAGGAGGCGGACUUCGGUGGCGCGAUAGCGCCAACGUCCUCAACCUCCAAUGCAUCCCACCACAUGAUGGUGCCUAAAGAGCCUUGGUUUUUUG [A37U A50G G52A A111G G117A]	-2.93
GACCAAUCUGCCCUCAGAGCUCGAGAACAUCUUCGGUUACAGAGGAGGCAGGCUUCGGUGGCGCGAUAGCGCCAACGUCCUCAACCUCCAAUGCAUCCCACCACAUGAUGAUGCCUGAAGAGCCUUGGUUUUUUG [A37U G39A]	-1.34
GACCAAUCUGCCCUCAGAGCUCGAGAACAUCUUCGGUUGCAGAGGAGGCAGGCUUCGCUGGCGCGAUAGCGCCAUCGUCUUCAACCUCCAAUACAUACCACCACAUGAUGAUGCCUGAAGAGCCUUGGUUUUUUG [A37U G58C A75U C80U G93A C97A]	-6.83
GACCAAUCUGCCCUCAGAGCUCGAGAACAUCUUCGGUUGCAGAGGAGGCUGACUUCGGUGGCGCGAUAGCGCCAACGUCCUCAACCUCCAAUGCAUCCCACCACAUGAUGAUGCCUGAAGAGCCUUGGUUUUUUG [A37U A50U G52A]	-2.94
GACCAAUCUGCCCUCAGAGCUCGAGAACAUCUUCGGUUGCAGACGAGGCAGGGUCCGGUGACGCGAUAGCGCCAACGUCCUCAACCUCUAAUGCAUCCCACCACAUGAUGAUGCCUCAAGAGCCUUGGUUUUUUG [A37U G44C C53G U55C G61A C89U G117C]	-4.88
GACCAAUCUGCCCUCAGAGCUCGAGAACAUCUUCGGUUGCAGAGGAGGCAGGCUUCGGUGGCGCGAUAGCGCCAACGUCCUCAACCUUCAAUGCAUCCCAGCACAUGAUGAUGCGUGAAGAGCCUUGGUUUUUUG [A37U C88U C101G C115G]	-3.98
GACCAAUCUGCCCUCAGAGCUCGAGAACAUCUUCGGUUGCAGAGGAGACAGGCUUCGGUGCCGCGAUAGCGCCAACGUCCUCAACCUCCAAUGCAUCCCACCACUUGAUGUUGCCUGAAGAGCCUUGGUUUUUUG [A37U G48A G61C A105U A111U]	-6.69
GACCAAUCUGCCCUCAGAGCUCGAGAACAUCUUCGGUUGCAGAGGAGGCAGGCUUCGGUGUCGCGAUAGCGCCAACGUCCUCGACCUACAAUGCAUCCCACCACAUGAUGAUGCCUGAAGAGCCUUGGUUUUUUG [A37U G61U A83G C88A]	-2.28
GACCAAUCUGCCCUCAGAGCUCGAGAACAUCUUCGGUUGCAGAGGAUGCAGGCUGCGGUGGCGCGAUAGCGCCAACGUCCUCAACCUCCAAUGCAUCCCACCACAUGAUGAUGUCUGAAGAGCCUUGGUUUUUUG [A37U G47U U55G C114U]	-3.49
GACCAAUCUGCCCUCAGAGCUCGAGAACAUCUUCGGUUGCAGAGGAGGCAGUCUUCGGUGGCGCGAUACCGCCAACGUCCUCAACCUCCAAUGCAUCCCACCACAUGAUGAUGCCUGAAGAGCCUUGGUUUUUUG [A37U G52U G69C]	-2.07
GACCAAUCUGCCCUCAGAGCUCGAGAACAUCUUCGGUUGCAGAGGAGGCAGGCUUCGGUGGCGCGAUACCGCCAACGUCCUCAACCUCCAAUGCAUCCCACCACAUGAUGAAGCCUGAAGAGCCUUGUUUUUUUG [A37U G69C U112A G128U]	-4.19
GACCAAUCUGCCCUCAGAGCUCGAGAACAUCUUCGGUUGCAGAGGAGGCAGGCUUCGGUGGCGCGAUAGCGCCAACGUCCUCAACCUCCAAUGCAUCCCACCACAUGAUGUUGCCUGAAGAGCCUUGGUUUUUUG [A37U A111U]	-3.3
GACCAAUCUGCCCUCAGAGCUCGAGAACAUCUUCGGUUGCAGAGGAGGCAGGCUUCGGUGGCGCGAUAGCGCCAACGUCCUCAACCUCCAAUGCAUCCCACCACCUGAUGAUGCCUGAAGAGCCUUGGUUUUUUG [A37U A105C]	-3.01
GACCAAUCUGCCCUCAGAGCUCGAGAACAUCUUCGGUUGCAGAGGAGGCAGACUUAGGUGGCGCGAUAGCGCCAACGUCCUCAACCUCCAAUGCAUCCCACCACAUGAUCAUGCCUGUAGAGCCUUGGUUUUUUG [A37U G52A C56A G110C A118U]	-5.47
GACCAAUCUGCCCUCAGAGCUCGAGAACAUCUUCGGUUGCAGAGGAGGCAGACUUCGGUGACGCGAUAGCGCCAACGUCCUCAACCUCCAAUGCAUCCCACCACGUGAUGAUGCCUGAAGAGCCUUCGUUUUUUG [A37U G52A G61A A105G G127C]	-4.21
GACCAAUCUGCCCUCAGAGCUCGAGAACAUCUUCGGUUGCAGAGGAGGCAGGCUUCGGUGGCGCGAUAACGCCAACAUCCUCAACCUCCUAUGCAUCCCACCACAUGAUGAUGCCUGAAGAGUCUUGGUUUUUUG [A37U G69A G77A A90U C123U]	-5.05
GACCAAUCUGCCCUCAGAGCUCGAGAACAUCUUCGGUUGCAGAGGAGGCAUGCUUCGGUGGCGCGAUAGCGCCAACAUCCUCAACCUCCAUUGCAUCCCACCACAUGAUGAUGCCUGAAGAGCCUUGGUUUUUUG [A37U G51U G77A A91U]	-6.95
